Experimental data reported in paper PMC9756848.

Experiments:
[1] = target: Flag-hAPRIL (human); experiment: SEC; Superdex S200 Increase HR 10/30, PBS 10 ug/ml BSA, 0.7 ml/min; proteins alone or Flag-ligand with a 20-fold mass excess of atacicept; fractions analysed by Western blot; complexes of fractions 10 and 11 concentrated and run again
[2] = target: endogenous BAFF (human serum) (human (endogenous in serum)); experiment: SEC; 300 ul serum of an atacicept-treated SLE patient (pre-dose, 4 weeks of treatment, 12 weeks after treatment end) fractionated in PBS; BAFF ELISA and non-reducing anti-TACI Western blot of the fractions

Row | Substance | stoichiometry N [1] | stoichiometry N [2]
1 | Flag-hAPRIL (ligand) | 3 | –
2 | endogenous BAFF (human serum) (ligand) | – | 3
